Data from patent publication US20250129170A1 (IMMUNEDGE, published 2025).
Changes are numbered by the printed parent chain.

T1: soluble hetero-EPOR (EPOR-CD131-Fc) (human, UniProt P19235 25-250; P32927 17-443)
T1 construct: extracellular domain; also called soluble EPOR-CD131-Fc; not shown: human Fc (captured by anti-human Fc)
T1 sequence (looked up) 1: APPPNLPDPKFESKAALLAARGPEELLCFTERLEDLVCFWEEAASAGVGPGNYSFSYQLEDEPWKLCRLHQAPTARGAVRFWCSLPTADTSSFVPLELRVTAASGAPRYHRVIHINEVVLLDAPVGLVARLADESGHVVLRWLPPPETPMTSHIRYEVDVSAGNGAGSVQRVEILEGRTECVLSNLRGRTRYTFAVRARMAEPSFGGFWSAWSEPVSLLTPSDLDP
T1 sequence (looked up) 2: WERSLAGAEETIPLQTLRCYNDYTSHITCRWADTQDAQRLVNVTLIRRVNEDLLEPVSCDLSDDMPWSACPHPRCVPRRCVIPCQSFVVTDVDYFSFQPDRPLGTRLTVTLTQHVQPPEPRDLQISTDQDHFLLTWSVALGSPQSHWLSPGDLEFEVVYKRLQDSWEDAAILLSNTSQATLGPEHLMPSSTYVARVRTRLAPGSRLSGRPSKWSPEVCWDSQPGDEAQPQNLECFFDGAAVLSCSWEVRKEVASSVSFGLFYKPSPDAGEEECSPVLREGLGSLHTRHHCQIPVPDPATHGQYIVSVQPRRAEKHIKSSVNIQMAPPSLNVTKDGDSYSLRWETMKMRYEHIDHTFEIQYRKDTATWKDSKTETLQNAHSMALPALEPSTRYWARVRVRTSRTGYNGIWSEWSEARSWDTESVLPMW

T2: human CD131 on 293T/CD131 cells (human, UniProt P32927 17-897)
T2 construct: whole, on cells; also called hCD131
T2 sequence (looked up): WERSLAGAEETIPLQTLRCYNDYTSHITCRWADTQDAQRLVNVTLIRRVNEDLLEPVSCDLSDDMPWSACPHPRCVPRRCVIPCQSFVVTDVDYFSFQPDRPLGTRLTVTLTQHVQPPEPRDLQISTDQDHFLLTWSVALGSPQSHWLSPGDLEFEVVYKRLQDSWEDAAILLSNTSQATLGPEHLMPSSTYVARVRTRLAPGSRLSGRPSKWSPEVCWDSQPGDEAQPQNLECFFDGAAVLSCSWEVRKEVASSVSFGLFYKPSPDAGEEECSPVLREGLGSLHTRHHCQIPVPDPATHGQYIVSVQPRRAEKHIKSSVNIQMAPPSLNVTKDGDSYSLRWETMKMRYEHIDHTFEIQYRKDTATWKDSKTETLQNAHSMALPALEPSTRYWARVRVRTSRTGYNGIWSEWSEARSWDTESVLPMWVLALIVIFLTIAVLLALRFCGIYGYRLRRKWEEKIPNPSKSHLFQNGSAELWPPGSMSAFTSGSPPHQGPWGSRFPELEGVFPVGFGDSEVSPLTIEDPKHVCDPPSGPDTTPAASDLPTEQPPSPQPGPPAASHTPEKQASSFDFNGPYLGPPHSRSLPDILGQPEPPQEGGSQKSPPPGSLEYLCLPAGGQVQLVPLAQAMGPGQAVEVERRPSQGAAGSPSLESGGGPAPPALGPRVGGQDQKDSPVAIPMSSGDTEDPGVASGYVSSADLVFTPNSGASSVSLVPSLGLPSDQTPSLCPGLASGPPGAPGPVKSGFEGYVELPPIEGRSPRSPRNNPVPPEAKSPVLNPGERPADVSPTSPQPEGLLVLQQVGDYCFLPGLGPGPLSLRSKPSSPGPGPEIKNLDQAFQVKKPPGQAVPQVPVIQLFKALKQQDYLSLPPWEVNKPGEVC

T3: hCD131-Fc (IME021, inhouse) (human, UniProt P32927 17-443, limits assumed)
T3 construct: also called soluble CD131 subunit of hetero-EPOR; not shown: Fc
T3 sequence (looked up): T1 sequence (looked up) 2

B1: EPORab - M1 (antibody, V domains shown)
VH: QVQLQESGPGLVKPSQTLSLTCTVSGGSISSGGYYWSWIRQHPGKGLEWIGNIYYSGNPYYNPSLKSRLIISVDTSKNQFSLRLNSVTAADTAVYYCATFYYGSGSYYNEDYWGQGTLVTVSS
VL: DIQMTQSPSSLSASVGDRVTITCRASQGIRIDLGWYQQKPGKAPKRLIYAASSLKSGVPSRFSGSGSGTEFTLTISSLQPEDFTTYFCLQHNSYPYTFGQGTKLEIK
notes: hybridoma supernatant, ATX-GK mouse; also called hybridoma clone M1
B2: EPORab - M2 (antibody, V domains shown)
VH: QVQLVESGGGLVKPGGSLRLSCAASGFTFSDSYMSWIRQAPGKGLEWVSYISNSGSYMYYADSVKGRFTISRDNAKNSLYLQMNNLRAEDTAVYYCARDKLGIGDYWGQGTLVTVSS
VL: B1 VL with I31N, Y36F, S53R, K55Q, T84A, F87C, N92H, S93T, Y96P, L104V
notes: hybridoma supernatant, ATX-GK mouse; also called hybridoma clone M2
B3: EPORab - M52 (antibody, V domains shown)
VH: QLQLQESGPGLAKPSETLSLTCTVSGVSISSNSYYWGWIRQPPGKGLEWIGNIYHSGRTYYNPSLRSRVTISVDTSKNQFSLKLNSVTAADTAVYYCARGYSYGAFDYWGQGTLVTVSS
VL: B1 VL with I31N, K55Q, V58I, T84A, F87Y, S93N, Y96W, L104V
notes: hybridoma supernatant, ATX-GK mouse; also called hybridoma clone M52
B4: hybridoma clone M2 (antibody, V domains shown)
VH: B2 VH
VL: B1 VL with I31N, Y36F, S53R, K55Q, T84A, F87C, N92H, S93T, Y96P, L104V
notes: Hybridoma from ATX-GK mice; tested as supernatant (BLI) and purified (cell staining, Stat5 assay); also called EPORab - M2
B5: EPORab - M41 (antibody, V domains shown)
VH: QVQLVESGGGLVQPGRSLRLSCAASGFTFDDYAIHWVRQAPGKGLEWVSGISYNSENIGYADSVKGRFTISRDNAKNSLYLQMNSLRSEDTALYYCAKDMFLTWFSSFDYWGQGTLVTVSS
VL: ETKLTQSPGTLSLSPGERTTLSCRASQSISNNYLAWYQQKPGQAPRLLIYRASTRATGIPDRFSGSGSGTDFTLTIRRLEPEDFAVYYCQRYGRSPLTFGGGTKVEIK
notes: hybridoma supernatant, ATX-GK mouse; also called hybridoma clone M41
B6: hybridoma clone M41 (antibody, V domains shown)
VH: B5 VH
VL: B5 VL
notes: Hybridoma from ATX-GK mice; tested as supernatant (BLI) and purified (cell staining, Stat5 assay); also called EPORab - M41
B7: EPORab - M38 (antibody, V domains shown)
VH: QVQLVESGGGVVQPGRSLRLSCAASGFTFSSYGMHWVRQAPGKGLEWVAFIWYDGRNKNYVDSVKGRFTISRDNSKNTLYLQMNSLRAEDTAVYYCARDRGDYVFDYWGQGTLVTVSS
VL: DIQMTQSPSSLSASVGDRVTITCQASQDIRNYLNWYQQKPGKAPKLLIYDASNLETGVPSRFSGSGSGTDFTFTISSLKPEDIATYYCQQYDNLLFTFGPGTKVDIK
notes: hybridoma supernatant, ATX-GK mouse; also called hybridoma clone M38
B8: hybridoma clone M26 (antibody, V domains shown)
VH: QVQLVQSGVEVKKPGASVKVSCKASGYAFSNNDISWVRQAPGQGLEWMAWITTSNGNTNYAPKLQGRVTMTTDTSTSTAYMELRSLKSDDTAVYYCARGGRTGYFDYWGQGTLVTVSS
VL: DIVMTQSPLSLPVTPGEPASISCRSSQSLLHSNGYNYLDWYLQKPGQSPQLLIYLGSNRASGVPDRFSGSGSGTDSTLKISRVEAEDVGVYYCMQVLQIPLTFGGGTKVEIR
notes: Hybridoma from ATX-GK mice; also called EPORab - M26
B9: EPORab - M26 (antibody, V domains shown)
VH: B8 VH
VL: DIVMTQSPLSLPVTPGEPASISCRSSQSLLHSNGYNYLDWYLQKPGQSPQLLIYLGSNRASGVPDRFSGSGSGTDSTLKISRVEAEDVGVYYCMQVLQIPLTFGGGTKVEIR
notes: hybridoma supernatant, ATX-GK mouse; also called hybridoma clone M26
B10: EPORab - M24 (antibody, V domains shown)
VH: EVQLVESGGGLVKPGGSLRLSCAASGFTFTNAWMNWVRQAPGKGLEWIGRIKSKTAGETTDYAAPVKGRFTISRDDSKNTLYLQMNSLKTEDTAVYYCTTDPDYGDPYYYYYFMDVWGKGTTVTVSS
VL: DIQMTQSPSSLSASIGDRVTISCRASQSISSYLNWYQQKPGKAPKLLIYGASSLQSGVPSRFSGSGSGTDFTLTISSLQPEDFATYYCQQSYSLPLTFGGGTKVEIK
notes: hybridoma supernatant, ATX-GK mouse; also called hybridoma clone M24
B11: EPORab - M19 (antibody, V domains shown)
VH: QLQLQESGPGLVKPSETLSLTCTVSGGSISSSNHYWGWIRQPPGKGLEWIGTLYYSGSTYYEPSLKSRVTISVDTSMNQFSLNLSSVTATDTAVYNCARGDRYGPFDYWGQGTLVTVSS
VL: DIVMTQSPSSLSASVGDRVTITCRASQGIRDDLGWYQQKPEKAPKRLICAASSLQSGVPSRFSGSGSGTEFTLTISSLQPEDFATYYCLQYNRYPWTFGQGTKVEIK
notes: hybridoma supernatant, ATX-GK mouse; also called hybridoma clone M19
B12: EPORab - M9 (antibody, V domains shown)
VH: QVQLQESGPGLVKPSQTLSLTCDISGDSVSSNSAAWNWIRQSPSRGLEWLGRTYYRSKWYNDYAVAVKSRITINPDTSKNQFSLQLNSVTPEDTAVYYCARESSGWYEDYYYYYMDVWGKGTTVTVSS
VL: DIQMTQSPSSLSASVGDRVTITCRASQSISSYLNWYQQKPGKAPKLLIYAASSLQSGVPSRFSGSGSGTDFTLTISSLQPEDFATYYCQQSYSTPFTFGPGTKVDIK
notes: hybridoma supernatant, ATX-GK mouse; also called hybridoma clone M9
B13: EPORab - M37 (antibody, V domains shown)
VH: QVQLQESGPGLVKPSGTLSLTCAVSGGSITTNNWWSWVRQSPGKGLEWIGEIYHSGNTNYNPSLKSRVTMSVDKSKNQFSLNLNSVIVADTAVYYCASALGTYYGAFDTWGQGTMVTVSA
VL: DIQMTQSPSSLSASVGDRVTITCRASQSISNYLNWYQQKPGKAPKLLIYAASSLQSGVPSRFSGSGSGTDFTLTISSLQPEDFTTYYCQQSYGTPYTFGQGAKLQIK
notes: hybridoma supernatant, ATX-GK mouse; also called hybridoma clone M37
B14: EPORab - M43 (antibody, V domains shown)
VH: QVQLQESGPGLVKPSGTLSLTCAVSGGSISSSNWWSWVRQPPGKGLEWIGEIYHSGSINYNPSLKSRVTISVDKSKNQFSLKLTSVTAADTAVYYCASALGNYYGAFDLWGQGTMVTVSS
VL: B13 VL with Q3V, S28T, N31S, Y49C, S56G, T84A, T85P, G93S, A102T, Q105E
notes: hybridoma supernatant, ATX-GK mouse; also called hybridoma clone M43
B15: EPORab - M87 (antibody, V domains shown)
VH: QVQLVQSGAEVKKPGASMKVSCKASGYTFTQNHISWVRQAPGQGLEWMGWISAYSGNTNYAWKFQGRVTMTTDTSTNTAYMELRSLRSDDTAVYYCARDRGNWNDFAYWGRGTLVTVSS
VL: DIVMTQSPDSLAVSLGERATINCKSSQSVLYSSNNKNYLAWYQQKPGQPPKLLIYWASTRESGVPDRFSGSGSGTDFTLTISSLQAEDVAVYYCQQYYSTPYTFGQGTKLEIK
notes: hybridoma supernatant, ATX-GK mouse; also called hybridoma clone M87
B16: EPORab - M80 (antibody, V domains shown)
VH: B2 VH
VL: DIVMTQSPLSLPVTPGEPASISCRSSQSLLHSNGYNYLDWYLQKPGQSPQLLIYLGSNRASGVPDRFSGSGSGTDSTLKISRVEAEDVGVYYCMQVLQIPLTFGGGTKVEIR
notes: hybridoma supernatant, ATX-GK mouse; printed VH equals that of M2; also called hybridoma clone M80
B17: EPORab - M54 (antibody, V domains shown)
VH: QLQLQESGPGLVKPSETLSLTCSVSGGSISSSGYYWGWIRQPPGKGLDWIGTIYYSGNTNYNPSLNSRVTISVDTSRNQFSLKLRSVTAADTAVYYCARGYSYGPFDYWGQGTLVTVSS
VL: EIVMTQSPATLSVSPGERATLSCRASQSVSSNLAWYQLKPGQAPRLLIYGASTRATGIPARFSGSGSGTEFTLTISSLQSEDFAVYYCHPYNNWPLTFGGGTKVEIK
notes: hybridoma supernatant, ATX-GK mouse; also called hybridoma clone M54
B18: EPORab - M71 (antibody, V domains shown)
VH: QVQLVESGAEVKKPRASVKVSCKTSGYTFTRHYMHWVRQAPGQGLEWMGIINPNNNSTSYAQKFQGRITMTRDTSTSTVYMELSSLRSEDTAVYYCARFRIVGTTLYFDYWGQGTLVTVSS
VL: B17 VL
notes: hybridoma supernatant, ATX-GK mouse; also called hybridoma clone M71

What was measured:
[1] = biological target: T1, soluble hetero-EPOR (EPOR-CD131-Fc); test: Octet BLI, EPOR-CD131-Fc on anti-human Fc sensor, 10 nM EPO +/- hybridoma supernatant; competitor EPO
[2] = biological target: T2, human CD131 on 293T/CD131 cells; test: flow cytometry on 293T/CD131 cells, purified antibody, PE labeled secondary antibody
[3] = biological target: T3, hCD131-Fc (IME021, inhouse); test: Octet BLI, antibody from supernatant captured on anti-mouse Fc biosensors, 30 nM soluble receptor Fc fusion

Row | Binder | % Inhibition [1] | also measured
1 | B1 | 31.2% | –
2 | B2 | 93.6% | –
3 | B3 | 7.4% | –
4 | B4 | – | binding result [2]: no binding
5 | B5 | 18.7% | –
6 | B6 | – | binding result [2]: no binding
7 | B7 | 0.5% | –
8 | B8 | – | binding result [3]: binds
9 | B9 | 31.3% | –
10 | B10 | 9.5% | –
11 | B11 | 10.4% | –
12 | B12 | 18.1% | –
13 | B13 | -7.1% | –
14 | B14 | -11.4% | –
15 | B15 | 11.5% | –
16 | B16 | -1.8% | –
17 | B17 | 16% | –
18 | B18 | 0.1% | –
